Experiment [1] deals with T1, Recombinant Human DLL4 (R&D Systems Cat#1506-D4/CF) (human, UniProt Q9NR61 27-524).
T1 construct: Bought recombinant protein; also called delta-like protein 4; rHuman DLL4
In words: ECL multispot (MSD), antigen spotted, Fab in solution; blank spot 407.

In experiment [2] the target is T2, rHuman P-Cadherin/Fc Chimera, CF (R&D Systems Cat#861-PC) (human, UniProt P22223 108-654).
T2 construct: Bought reagent
The experiment is described as above.

The target of experiment [3] is T3, rHuman IGF-1 sR (insulin-like growth factor-1 soluble receptor), CF (R&D Systems Cat#391-GR) (human, UniProt P08069 31-932).
T3 construct: Bought soluble receptor
The experiment is described as above.

For experiment [4], the target named is T4, rHuman Erythropoietin R/Fc Chimera, CF (R&D Systems Cat#963-ER) (human, UniProt P19235 25-250).
T4 construct: Bought reagent; also called EPO R; Epo R/Fc
T4 sequence (looked up): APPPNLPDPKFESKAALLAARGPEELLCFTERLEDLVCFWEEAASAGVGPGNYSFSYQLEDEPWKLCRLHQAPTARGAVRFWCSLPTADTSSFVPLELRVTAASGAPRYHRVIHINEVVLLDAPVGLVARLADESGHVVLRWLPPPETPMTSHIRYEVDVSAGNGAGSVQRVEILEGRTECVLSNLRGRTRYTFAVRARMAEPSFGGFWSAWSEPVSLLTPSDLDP
The experiment is described as above.

Experiment [5] has as its target T5, rHuman EGF R/Fc Chimera, CF (R&D Systems Cat#344-ER) (human, UniProt P00533 25-645).
T5 construct: Bought reagent
The experiment is described as above.

The target in experiment [6] is T6, rHuman ErbB2/Fc Chimera, CF (R&D Systems Cat#1129-ER) (human, UniProt P04626 23-652).
T6 construct: Bought reagent
Described as above.

Experiment [7] concerns the target T7, rHuman Notch-1/Fc Chimera, CF (R&D Systems Cat#3647-TK) (human, UniProt P46531 19-526).
T7 construct: Bought reagent
The description is as above.

The target of experiment [8] is T8, rHuman CD44/Fc Chimera, CF (R&D Systems Cat#3660-CD) (human, UniProt P16070 21-220).
T8 construct: Bought reagent
Described as above.

Experiment [9] deals with T9, rHuman HGF R/c-MET/Fc Chimera, CF (R&D Systems Cat#358-MT/CF) (human, UniProt P08581 25-932).
T9 construct: Bought reagent; also called HGF R/Fc
The experiment is described as above.

Experiment [10] concerns the target T1, Recombinant Human DLL4 (R&D Systems …). In words: ECL multispot (MSD), antigen spotted, Fab in solution; blank spot 416.
The target of experiment [11] is T2, rHuman P-Cadherin/Fc Chimera, CF (R&D …). The experiment is described as above.
For experiment [12], the target named is T3, rHuman IGF-1 sR (insulin-like growth …). The description is as above.
Experiment [13] concerns the target T4, rHuman Erythropoietin R/Fc Chimera, CF …. The description is as above.
For experiment [14], the target named is T5, rHuman EGF R/Fc Chimera, CF (R&D …). The experiment is described as above.
Experiment [15] has as its target T6, rHuman ErbB2/Fc Chimera, CF (R&D …). Described as above.
For experiment [16], the target named is T7, rHuman Notch-1/Fc Chimera, CF (R&D …). The description is as above.
Experiment [17] deals with T8, rHuman CD44/Fc Chimera, CF (R&D Systems …). The experiment is described as above.
Experiment [18] concerns the target T9, rHuman HGF R/c-MET/Fc Chimera, CF (R&D …). The experiment is described as above.
Experiment [19] deals with T1, Recombinant Human DLL4 (R&D Systems …). Briefly: ECL multispot (MSD), antigen spotted, Fab in solution; blank spot 262.
Experiment [20] has as its target T2, rHuman P-Cadherin/Fc Chimera, CF (R&D …). The description is as above.
The target in experiment [21] is T3, rHuman IGF-1 sR (insulin-like growth …). The experiment is described as above.
In experiment [22] the target is T4, rHuman Erythropoietin R/Fc Chimera, CF …. The description is as above.
For experiment [23], the target named is T5, rHuman EGF R/Fc Chimera, CF (R&D …). The description is as above.
Experiment [24] deals with T6, rHuman ErbB2/Fc Chimera, CF (R&D …). The experiment is described as above.
The target of experiment [25] is T7, rHuman Notch-1/Fc Chimera, CF (R&D …). Described as above.
The target of experiment [26] is T8, rHuman CD44/Fc Chimera, CF (R&D Systems …). The experiment is described as above.
Experiment [27] addresses T9, rHuman HGF R/c-MET/Fc Chimera, CF (R&D …). The experiment is described as above.
Experiment [28] concerns the target T1, Recombinant Human DLL4 (R&D Systems …). Briefly: ECL multispot (MSD), antigen spotted, Fab in solution; blank spot 306.
Experiment [29] has as its target T2, rHuman P-Cadherin/Fc Chimera, CF (R&D …). The description is as above.
Experiment [30] concerns the target T3, rHuman IGF-1 sR (insulin-like growth …). The description is as above.
The target of experiment [31] is T5, rHuman EGF R/Fc Chimera, CF (R&D …). Described as above.
For experiment [32], the target named is T6, rHuman ErbB2/Fc Chimera, CF (R&D …). The experiment is described as above.
Experiment [33] concerns the target T9, rHuman HGF R/c-MET/Fc Chimera, CF (R&D …). The experiment is described as above.

T9 sequence (P08581 25-932, change not shown): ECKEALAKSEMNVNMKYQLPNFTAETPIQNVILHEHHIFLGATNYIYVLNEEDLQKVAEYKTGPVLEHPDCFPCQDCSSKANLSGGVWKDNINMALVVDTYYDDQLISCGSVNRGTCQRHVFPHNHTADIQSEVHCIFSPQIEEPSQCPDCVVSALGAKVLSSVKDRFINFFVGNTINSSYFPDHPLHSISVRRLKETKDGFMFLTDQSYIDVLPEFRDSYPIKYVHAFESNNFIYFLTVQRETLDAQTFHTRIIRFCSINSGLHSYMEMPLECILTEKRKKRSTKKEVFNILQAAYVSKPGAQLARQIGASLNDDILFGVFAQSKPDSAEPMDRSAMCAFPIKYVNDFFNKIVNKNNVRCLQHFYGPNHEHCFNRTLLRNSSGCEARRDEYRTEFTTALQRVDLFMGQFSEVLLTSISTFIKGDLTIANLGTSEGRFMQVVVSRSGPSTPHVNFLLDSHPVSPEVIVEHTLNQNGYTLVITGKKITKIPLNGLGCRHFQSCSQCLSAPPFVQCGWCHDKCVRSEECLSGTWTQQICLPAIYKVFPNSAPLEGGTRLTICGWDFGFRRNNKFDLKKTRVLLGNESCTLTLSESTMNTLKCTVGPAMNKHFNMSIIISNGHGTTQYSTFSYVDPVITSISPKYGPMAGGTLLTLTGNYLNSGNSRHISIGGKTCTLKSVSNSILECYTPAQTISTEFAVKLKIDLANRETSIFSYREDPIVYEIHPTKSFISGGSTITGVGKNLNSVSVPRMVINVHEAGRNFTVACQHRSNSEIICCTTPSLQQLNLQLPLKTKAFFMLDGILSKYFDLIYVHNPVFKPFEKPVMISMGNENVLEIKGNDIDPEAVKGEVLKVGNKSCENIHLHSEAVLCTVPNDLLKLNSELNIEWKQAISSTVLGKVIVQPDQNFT

B1: Fab VH1-46_IGHD6-6*01_IGHJ1*01 S102A/S103P/S104F/H111F (APFF) & L6_IGKJ1*01 S30T (Fab, V domains shown)
VH: QVQLVQSGAEVKKPGASVKVSCKASGYTFTSYYMHWVRQAPGQGLEWMGIINPSGGSTSYAQKFQGRVTMTRDTSTSTVYMELSSLRSEDTAVYYCAREEYAPFSAEYFQFWGQGTLVTVSS
VL: EIVLTQSPATLSLSPGERATLSCRASQSVTSYLAWYQQKPGQAPRLLIYDASNRATGIPARFSGSGSGTDFTLTISSLEPEDFAVYYCQQRSNWPPWTFGQGTKVEIKR
notes: Tested as Fab made in E. coli: VH joined to CH1 from Plasmid A (His6 and Flag tags), VL joined to kappa CL from Plasmid C; also called APFF / S30T
B1: the ECL signal in experiment [1] worked out at 122000; in experiment [2], 370; in [3], 410; in experiment [4] it was 497; in experiment [5], 360; in [6], 332. The ECL signal in [7] was 413; in experiment [8], 423; in experiment [9] it was 375.

B2: Fab VH1-46_IGHD6-6*01_IGHJ1*01 S102A/S103P/S104F/H111F (APFF) & L6_IGKJ1*01 S30R (Fab, V domains shown)
VH: QVQLVQSGAEVKKPGASVKVSCKASGYTFTSYYMHWVRQAPGQGLEWMGIINPSGGSTSYAQKFQGRVTMTRDTSTSTVYMELSSLRSEDTAVYYCAREEYAPFSAEYFQFWGQGTLVTVSS
VL: EIVLTQSPATLSLSPGERATLSCRASQSVRSYLAWYQQKPGQAPRLLIYDASNRATGIPARFSGSGSGTDFTLTISSLEPEDFAVYYCQQRSNWPPWTFGQGTKVEIKR
notes: Tested as Fab made in E. coli: VH joined to CH1 from Plasmid A (His6 and Flag tags), VL joined to kappa CL from Plasmid C; also called APFF / S30R
Consider B2, for which the ECL signal in experiment [10] was 146000; in [11] it was 465; in experiment [12], 404; in experiment [13], 571; in experiment [14] it was 456; in experiment [15], 434. Besides, the ECL signal in experiment [16] worked out at 576; in experiment [17], 455; in [18], 458.

B3: Fab VH1-46_IGHD6-6*01_IGHJ1*01 S102A/S103P/S104F/H111F (APFF) & L6_IGKJ1*01 S30P (Fab, V domains shown)
VH: QVQLVQSGAEVKKPGASVKVSCKASGYTFTSYYMHWVRQAPGQGLEWMGIINPSGGSTSYAQKFQGRVTMTRDTSTSTVYMELSSLRSEDTAVYYCAREEYAPFSAEYFQFWGQGTLVTVSS
VL: EIVLTQSPATLSLSPGERATLSCRASQSVPSYLAWYQQKPGQAPRLLIYDASNRATGIPARFSGSGSGTDFTLTISSLEPEDFAVYYCQQRSNWPPWTFGQGTKVEIKR
notes: Tested as Fab made in E. coli: VH joined to CH1 from Plasmid A (His6 and Flag tags), VL joined to kappa CL from Plasmid C; also called APFF / S30P
Regarding B3, the ECL signal in experiment [19] turned out to be 1140; in [20], 348; in experiment [21], 356; in [22], 520; in experiment [23], 394; in experiment [24], 391. Further, the results for the ECL signal in experiment [25], in experiment [26] and in experiment [27] were 544, 334 and 328, respectively.

B4: Fab VH1-46_IGHD6-6*01_IGHJ1*01 S102A/S103P/S104F/H111F (APFF) & L6_IGKJ1*01 (Fab, V domains shown)
VH: QVQLVQSGAEVKKPGASVKVSCKASGYTFTSYYMHWVRQAPGQGLEWMGIINPSGGSTSYAQKFQGRVTMTRDTSTSTVYMELSSLRSEDTAVYYCAREEYAPFSAEYFQFWGQGTLVTVSS
VL: not shown
notes: Tested as Fab made in E. coli: VH joined to CH1 from Plasmid A (His6 and Flag tags), VL joined to kappa CL from Plasmid C; Light chain unmutated (parent); also called APFF / parent; H:APFF & L:wt
For B4, the ECL signal came out at 208000 in experiment [28]; 466 in experiment [29]; 409 in experiment [30]; 386 in [31]; 412 in experiment [32]; 349 in experiment [33].
